Data set [1] deals with the molecule itself. The data set is described as follows: native MS; ESI-Q-TOF MS of SEC fractions, stefin B in 0.02 M ammonium acetate, pH 7.5, injected directly, positive mode.
Data set [2] concerns the molecule itself. Description: SEC; pH dependent transitions started from separated tetramers or higher-order oligomers; 34 μM protein, 2 h at 23 °C at pH 4.8, 5.8 or 7.0, 0.15 M NaCl, 9% (v/v) TFE. (Size exclusion chromatography separates by hydrodynamic size, large species first.)
Data set [3] concerns the molecule itself. Description: SEC; oligomers isolated on Superdex 75 and then loaded on Superdex 200; room temperature; 0.01 M phosphate buffer, pH 7.0, 0.15 M NaCl (0.02 M ammonium acetate, pH 7.5 for ESI MS samples).
Data set [4] deals with the molecule itself. The data set is described as follows: SEC; time course started from SEC-purified monomers, dimers, tetramers or higher-order oligomers; pH 5.8 (0.1 M phosphate buffer, 0.15 M NaCl, 9% (v/v) TFE, 25 °C); an aliquot every hour on Superdex 75; tetramer to dimers.
Data set [5] deals with the molecule itself. Description: SEC; concentration dependence (34, 75, 100 μM), started from the oligomer mixture; 0.02 M ammonium acetate, pH 7.5, 0.15 M NaCl, 9% (v/v) TFE, 50 °C, 300 rpm, 5 h; aliquots on Superdex 75; dimer to monomers, Kd = [M]^2/[D].
Data set [6] concerns the molecule itself. Description: SEC; concentration dependence (4, 9, 34, 75, 100 μM), started from the oligomer mixture; 0.1 M phosphate buffer, pH 5.8, 0.15 M NaCl, 9% (v/v) TFE, 25 °C, 300 rpm, 5 h; aliquots on Superdex 75; tetramer to dimers, Kd = [D]^2/[T].

Several values for one entry are separate records, joined by “and”; a condition that tells them apart may be missing. Identical values can stand only once.

B1: Recombinant human stefin B (S3E31) (natural protein, UniProt P04080 1-98, looked up)
chain: MMSGAPSATQPATAETQHIADQVRSQLEEKENKKFPVFKAVSFKSQVVAGTNYFIKVHVGDEDFVHLRVFQSLPHENKPLTLSNYQTNKAKHDELTYF
notes: human stefin B (product of the cystatin B gene), a globular protein of 98 amino acid residues; variant S3E31: Ser at position 3 instead of Cys, Glu at position 31; also called cystatin B
Broadly, the stoichiometry N is the number of molecules, sites or subunits per partner or assembly. Usually koff stands for a measure of how fast the partners let go of each other. A lower koff goes with a long-lived complex. A word on the Kd: it is a measure of binding affinity in units of concentration. In the case of B1, the “stoichiometry N” value in data set [1] is 10 and 8; in data set [2], 6 and 3; in data set [3], 2 and 4. This protein also yielded an off-rate (koff) in data set [4] of 0.0001 s⁻¹. Also, the Ka in data set [5] came out at 612000 M⁻¹; in data set [6], 3080 M⁻¹. For the same protein, the Kd in data set [5] turned out to be 1630 ± 310 nM; in data set [6], 325 ± 180 µM.

For the origin of these results see PMC3794784, “The Role of Initial Oligomers in Amyloid Fibril Formation by Human Stefin B” (International Journal of Molecular Sciences, 2013).
